Assay results taken from patent US20200308299A1, “ANTI-GPC-1 ANTIBODY” (National University Corporation Kochi University, priority 2017, published 2020).

Tests used:
TE14 cells = assay: ADC assay combining anti-GPC-1 antibody and MMAF binding secondary antibody, TE14 cells; assay type: cell-based; details: primary antibody plus MMAF secondary antibody
Protocol: FIG. 1 depicts a schematic diagram of an ADC used in an assay. This Example used a secondary antibody (MORADEC) to the anti-GPC1 antibody made in Example 1, to which an anticancer agent (MMAF) was bound via a linker.
2000 TE14 cells were added to a 96-well plate at 80 μl. The cells were cultured overnight at 37° C. in a 5% CO2 incubator. The next day, 10 μl of an anticancer agent bound secondary antibody and 10 μl of a primary antibody concentrated 10-fold relative to the final concentration was added to each well, so that the total amount was 100 μl. The cells were cultured for 6 days at 37° C. in a 5% CO2 incubator. The cell viability was measured by using a CellTiter-Glo Luminescent Cell Viability Assay reagent to detect the amount of ATP. RPMI1640+10% FBS+1% PS was used as the medium. The final concentrations of the primary antibody were 0, 0.004, 0.0156, 0.0625, 0.25, and 1.0 nM. 2 μg/ml of Fab-aMFc-CL-MMAF (model number: AM202AF-50, Moradec) was used as the secondary antibody.

DU145 cells = assay: ADC assay combining anti-GPC-1 antibody and MMAF binding secondary antibody in DU145 cells; assay type: cell-based; details: primary antibody plus MMAF secondary antibody, 3 days
Protocol: 2000 DU145 cells were added to a 96-well plate at 80 μl. The cells were cultured overnight at 37° C. in a 5% CO2 incubator. The next day, 10 μl each of anticancer agent binding secondary antibody (2 μg/ml) and primary antibody concentrated 10-fold relative to the final concentration was added to each well, so that the total amount was 100 μl. The cells were cultured for 3 days at 37° C. in a 5% CO2 incubator. The cell viability was measured by using a CellTiter-Glo Luminescent Cell Viability Assay reagent to detect the amount of ATP. RPMI1640+10% FBS+1% PS was used as the medium. The final concentrations of the primary antibodies were […]. 2 μg/ml of Fab-aMFc-CL-MMAF (model number AM202AF-50, Moradec) was used as the secondary antibody. The EC50 value was analyzed with GraphPad Prism 6. The same experiment was conducted using 4000 MDA-MB231 cells as the control.

B1: clone 01a017: anti-human Glypican-1 antibody, heavy chain SEQ ID NO: 138, light chain SEQ ID NO: 140 (antibody)
heavy: MKHLWFFLLLVAAPRWVLSEVQLQQSGGELVRPGTSVKMSCKAAGYTFTNYWIGWVKQRPGHGLEWIGDLYPGGGYTHYNEKFKGKATLTADTSSSTAYMQLSSLTSEDSAIYYCARERVYFDGSRYFDVWGAGTTVTVSSAKTTAPSVYPLAPVCGDTTGSSVTLGCLVKGYFPEPVTLTWNSGSLSSGVHTFPAVLQSDLYTLSSSVTVTSSTWPSQSITCNVAHPASSTKVDKKIEPRGPTIKPCPPCKCPAPNLLGGPSVFIFPPKIKDVLMISLSPIVTCVVVDVSEDDPDVQISWFVNNVEVHTAQTQTHREDYNSTLRVVSALPIQHQDWMSGKEFKCKVNNKDLPAPIERTISKPKGSVRAPQVYVLPPPEEEMTKKQVTLTCMVTDFMPEDIYVEWTNNGKTELNYKNTEPVLDSDGSYFMYSKLRVEKKNWVERNSYSCSVVHEGLHNHHTTKSFSRTPGK
light: MRLLAQLLGLLMLWVPGSSGSIVMTQTPKFLPVSAGDRVTMTCKASQSVGNNVAWYQQKPGQSPKLLIYYASNRYTGVPDRFTGSGSGTDFTFTISSVQVEDLAVYFCQQHYSSPWTFGGGTKLEIKRADAAPTVSIFPPSSEQLTSGGASVVCFLNNFYPKDINVKWKIDGSERQNGVLNSWTDQDSKDSTYSMSSTLTLTKDEYERHNSYTCEATHKTSTSPIVKSFNRNEC
TE14 cells
  EC50 values against TE14 cells: excellent EC50 values
DU145 cells
  EC50 values against DU145 cells: excellent EC50 values
